Assay [1] deals with NanoLuciferase-tagged human promyelocytic leukemia protein (hPML) (UniProt P29590). Nature of the assay: NanoBRET. The conditions noted are these: HEK293T cells transfected 24 h; 4 h incubation with Halo ligand; detection time 5 s at 618 nm and 448 nm; parent: est. 23; read off a plot.
In assay [2] the target is NanoLuciferase-tagged rat promyelocytic leukemia protein (rPML). Briefly: NanoBRET. The conditions noted are these: HEK293T cells transfected 24 h; 4 h incubation with Halo ligand; detection time 5 s at 618 nm and 448 nm; parent: est. 2.8; read off a plot. In general terms: In BRET a luciferase serves as donor, and the signal depends on an acceptor being close.

Chain of NanoLuciferase-tagged human promyelocytic leukemia protein (hPML) (P29590 whole entry): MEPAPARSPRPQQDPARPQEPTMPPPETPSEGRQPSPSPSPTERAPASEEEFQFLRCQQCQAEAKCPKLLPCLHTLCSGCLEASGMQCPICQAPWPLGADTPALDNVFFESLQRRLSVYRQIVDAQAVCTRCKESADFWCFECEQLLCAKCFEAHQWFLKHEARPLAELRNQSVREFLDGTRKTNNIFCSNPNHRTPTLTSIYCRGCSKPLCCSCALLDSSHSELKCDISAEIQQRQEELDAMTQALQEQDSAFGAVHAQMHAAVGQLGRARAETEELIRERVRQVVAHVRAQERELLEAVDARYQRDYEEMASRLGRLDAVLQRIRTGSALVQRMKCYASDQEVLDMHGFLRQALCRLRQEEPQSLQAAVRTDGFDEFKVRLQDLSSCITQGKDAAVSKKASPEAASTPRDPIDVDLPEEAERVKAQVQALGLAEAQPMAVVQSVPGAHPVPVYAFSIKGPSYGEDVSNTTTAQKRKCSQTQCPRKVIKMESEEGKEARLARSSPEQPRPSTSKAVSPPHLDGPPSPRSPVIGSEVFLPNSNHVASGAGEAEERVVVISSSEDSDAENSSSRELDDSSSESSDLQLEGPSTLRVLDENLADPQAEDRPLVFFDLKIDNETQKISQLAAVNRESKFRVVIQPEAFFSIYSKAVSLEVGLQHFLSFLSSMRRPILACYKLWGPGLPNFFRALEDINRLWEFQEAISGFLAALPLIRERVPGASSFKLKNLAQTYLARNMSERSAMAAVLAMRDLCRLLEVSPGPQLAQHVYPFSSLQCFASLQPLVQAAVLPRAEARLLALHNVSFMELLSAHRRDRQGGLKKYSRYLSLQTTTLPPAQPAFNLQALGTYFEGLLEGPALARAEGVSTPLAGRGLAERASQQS

Turning to “Halo-tagged human cytomegalovirus immediate early 1 protein (hIE1) (from UniProt P13202) hIE1_rH1/2”, the response came to 3.7 mBU in assay [1] and 6.5 mBU in assay [2].
With “Halo-tagged human cytomegalovirus immediate early 1 protein (hIE1) (from UniProt P13202) cc172-176”, in assay [1], the response was 24 mBU.
Consider “Halo-tagged human cytomegalovirus immediate early 1 protein (hIE1) (from UniProt P13202) hIE1_rH8”, for which the response amounted to 2.2 mBU in assay [1] and 6.5 mBU in assay [2].
Turning to “Halo-tagged human cytomegalovirus immediate early 1 protein (hIE1) (from UniProt P13202) hIE1_rH4”, the values for the response in assay [1] and in assay [2] were 4.1 mBU and 4 mBU, respectively.
The like results for “Halo-tagged human cytomegalovirus immediate early 1 protein (hIE1) (from UniProt P13202) hIE1_rH10/11” were, in that order, 2.6 mBU and 6.5 mBU.
For “Halo-tagged human cytomegalovirus immediate early 1 protein (hIE1) (from UniProt P13202) L174P”, the response in assay [2] turned out to be 7 mBU.
In the case of “Halo-tagged human cytomegalovirus immediate early 1 protein (hIE1) (from UniProt P13202) hIE1_rH1”, the response in assay [1] is 1.6 mBU; in assay [2], 5.5 mBU.

Source of the values: publication PMC9331606 (2022).
